From PMC7352323, “Regulation of Actin Filament Length by Muscle Isoforms of Tropomyosin and Cofilin” (International Journal of Molecular Sciences, 2020)

How the values were obtained:
Conditions in all cases: both partners purified
[1] = biological target: T1, F-actin initially saturated with Tpm1.1 (rabbit | human, UniProt P68135 1-377; P09493 1-284); assay: co-sedimentation; 0-10 µM cofilin-2 with 3 µM F-actin alone or initially saturated with 1 µM Tpm1.1 or Tpm3.12, 20 min at room temperature; 100 mM NaCl, 2 mM MgCl2, 1 mM DTT, pH 7.5; apparent Kapp from the Hill equation, K0 and ω from the McGhee and von Hippel linear lattice model
[2] = biological target: T2, F-actin (actin isolated from rabbit pectoral muscle, polymerised) (rabbit, UniProt P68135 1-377); assay: as above
[3] = biological target: T3, F-actin initially saturated with Tpm3.12 (rabbit | human, UniProt P68135 1-377; P06753 1-285); assay: as above
[4] = biological target: T2, F-actin (actin isolated from rabbit …); assay: co-sedimentation; dissociation of tropomyosin from the filament by cofilin-2: 3 µM F-actin, 1 µM Tpm1.1 or Tpm3.12, 0-10 µM cofilin-2; tropomyosin/actin densitometric ratio against cofilin-2/actin molar ratio, fit to a modified Hill equation; same gels as for cofilin-2 binding in the presence of tropomyosin
[5] = biological target: T1, F-actin initially saturated with Tpm1.1; assay: co-sedimentation; 0-10 µM cofilin-2 with 3 µM F-actin alone or initially saturated with 1 µM Tpm1.1 or Tpm3.12, 20 min at room temperature; 100 mM NaCl, 2 mM MgCl2, 1 mM DTT, pH 7.5; apparent Kapp from the Hill equation, K0 and ω from the McGhee and von Hippel linear lattice model; remark: listed apart in the source
[6] = biological target: T2, F-actin (actin isolated from rabbit …); assay: as above; remark: listed apart in the source
[7] = biological target: T3, F-actin initially saturated with Tpm3.12; assay: as above; remark: listed apart in the source

K0 (affinity for an isolated binding site, linear lattice model) [1]: 0.17 µM⁻¹
Ka [1]: 6.3e+06 M⁻¹
ω (cooperativity coefficient, linear lattice model) [1]: 12
K0 (affinity for an isolated binding site, linear lattice model) [2]: 0.01 µM⁻¹
Ka [2]: 5.7e+06 M⁻¹
ω (cooperativity coefficient, linear lattice model) [2]: 50
K0 (affinity for an isolated binding site, linear lattice model) [3]: 0.21 µM⁻¹
Ka [3]: 5.8e+06 M⁻¹
ω (cooperativity coefficient, linear lattice model) [3]: 10
cofilin-2/actin molar ratio at 50% dissociation of Tpm1.1 from F-actin [4]: 0.75 cofilin-2/actin
cofilin-2/actin molar ratio at 50% dissociation of Tpm3.12 from F-actin [4]: 0.71 cofilin-2/actin
stoichiometry N [5]: ~1 cofilin-2 per actin
stoichiometry N [6]: ~1 cofilin-2 per actin
stoichiometry N [7]: ~1 cofilin-2 per actin
B1: mouse cofilin-2, recombinant, GST tag removed (natural protein)
chain: MASGVTVNDEVIKVFNDMKVRKSSTQEEIKKRKKAVLFCLSDDKRQIIVEEAKQILVGDIGDTVEDPYTSFVKLLPLNDCRYALYDATYETKESKKEDLVFIFWAPESAPLKSKMIYASSKDAIKKKFTGIKHEWQVNGLDDIKDRSTLGEKLGGSVVVSLEGKPL
notes: cofilin-2 (muscle isoform of cofilin), mouse cDNA; MW 18,500 Da printed; The printed MW of 18,500 Da fits the whole protein
